Results taken from publication PMC12782892, “Natural variations in MdBPM2/MdRGLG3‐MdNAC83 network controlling the quantitative segregation of apple fruit storability”.

Biological target: MdNAC83 (Malus domestica, UniProt D9ZJA0 1-255)
Assay: EMSA; LightShift Chemiluminescent EMSA kit (Thermo), per Fan et al. 2018; buffer, salt, pH and temperature not stated
Conditions: protein: recombinant, tags: His (pET-32a), chain copies: 2, blunt

Chain of MdNAC83 (D9ZJA0 entry or part of it): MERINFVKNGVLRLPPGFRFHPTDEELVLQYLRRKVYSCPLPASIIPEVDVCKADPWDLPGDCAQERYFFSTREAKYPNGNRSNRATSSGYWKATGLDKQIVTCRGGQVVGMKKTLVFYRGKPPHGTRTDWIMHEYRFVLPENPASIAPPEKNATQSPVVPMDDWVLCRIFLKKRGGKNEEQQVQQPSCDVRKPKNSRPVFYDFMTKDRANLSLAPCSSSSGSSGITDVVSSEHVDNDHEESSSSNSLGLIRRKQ

B1: MdMANA3 promoter probe (MdMAN3-F/R) (dsDNA)
DNA 1: GGTTAATTTTCTCAATTTCGTATTGATTTACTCTTGTACT
DNA 2: AGTACAAGAGTAAATCAATACGAAATTGAGAAAATTAACC
Q: Does B1 bind ((LightShift kit; MdMAN3-HotF))?
A: binds

B2: MdACO1 promoter probe (MdACO1-F/R) (dsDNA)
DNA 1: TTGGTAGGGGTCCATCAGGACGTGCTTACTGTTCCCTACT
DNA 2: AGTAGGGAACAGTAAGCACGTCCTGATGGACCCCTACCAA
Q: Does B2 bind ((LightShift kit; MdACO1-HotF))?
A: binds

B3: MdXTH28 promoter probe (MdXH28-F/R) (dsDNA)
DNA 1: CCGTCCAAACCAGTAAACACGTAATTATAATCTCATTTAT
DNA 2: ATAAATGAGATTATAATTACGTGTTTACTGGTTTGGACGG
Q: Does B3 bind ((LightShift kit))?
A: binds
